Source: US20050260697

Columns and labels:
[1] = molecular target: human cardiac Troponin-I3, P19429
[2] = molecular target: human cardiac Troponin-T2, P45379
[3] = molecular target: human muscle Troponin-T1, P13805
[4] = molecular target: human muscle Troponin-T3, P45378
Sequence of human muscle Troponin-T3, P45378 (P45378 2-269): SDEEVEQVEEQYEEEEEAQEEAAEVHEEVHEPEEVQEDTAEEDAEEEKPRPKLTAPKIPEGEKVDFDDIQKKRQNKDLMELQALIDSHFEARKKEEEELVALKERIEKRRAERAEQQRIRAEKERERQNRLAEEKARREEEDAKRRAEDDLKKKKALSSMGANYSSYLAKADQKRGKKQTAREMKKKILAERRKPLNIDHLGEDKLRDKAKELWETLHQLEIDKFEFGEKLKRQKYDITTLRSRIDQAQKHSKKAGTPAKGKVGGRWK

Sequence of human muscle Troponin-T1, P13805 (P13805 whole entry): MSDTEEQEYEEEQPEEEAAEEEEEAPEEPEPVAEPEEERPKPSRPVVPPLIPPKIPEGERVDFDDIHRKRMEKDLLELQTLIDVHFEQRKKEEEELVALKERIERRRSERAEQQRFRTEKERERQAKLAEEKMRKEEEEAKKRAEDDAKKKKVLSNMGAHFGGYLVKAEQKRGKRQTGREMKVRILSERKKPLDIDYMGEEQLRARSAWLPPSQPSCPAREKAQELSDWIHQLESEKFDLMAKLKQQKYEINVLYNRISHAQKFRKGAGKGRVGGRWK
Sequence of human cardiac Troponin-I3, P19429 (P19429 whole entry, looked up): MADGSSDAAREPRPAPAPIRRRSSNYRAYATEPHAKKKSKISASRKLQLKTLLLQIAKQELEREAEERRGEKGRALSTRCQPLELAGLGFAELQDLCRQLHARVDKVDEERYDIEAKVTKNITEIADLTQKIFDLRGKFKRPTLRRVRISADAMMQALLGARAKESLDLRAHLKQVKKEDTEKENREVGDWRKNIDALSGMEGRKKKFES

B1: caspase-3 (protein)
chain: SGISLDNSYKMDYPEMGLCIIINNKNFHKSTGMTSRSGTDVDAANLRETFRNLKYEVRNKNDLTREEIVELMRDVSKEDHSKRSSFVCVLLSHGEEGIIFGTNGPVDLKKITNFFRGDRCRSLTGKPKLFIIQACRGTELDCGIETDSGVDDDMACHKIPVEADFLYAYSTAPGYYSWRNSKDGSWFIQSLCAMLKQYADKLEFMHILTRVNRKVATEFESFSFDATFHAKKQIPCIVSMLTKELYFYH
in vitro protease digestion, breakdown products on gels [1]: human cardiac Troponin-T2 and Troponin-13 were cleaved by calpain-2 and caspase-3 proteases, producing unique breakdown products | in vitro protease digestion, breakdown products on gels [2]: human cardiac Troponin-T2 and Troponin-13 were cleaved by calpain-2 and caspase-3 proteases, producing unique breakdown products | stated: cleaves (breakdown bands on a gel) [2]: the Caspase-3 lane shows a band d at the 25 kDa mark that is absent from the untreated lane and the Calpain-2 lanes; the Troponin-T2 band at 30 kDa is largely kept; no bands a, b, c

B2: calpain-1 (protein)
chain: SEEIITPVYCTGVSAQVQKQRARELGLGRHENAIKYLGQDYEQLRVRCLQSGTLFRDEAFPPVPQSLGYKDLGPNSSKTYGIKWKRPTELLSNPQFIVDGATRTDICQGALGDCWLLAAIASLTLNDTLLHRVVPHGQSFQNGYAGIFHFQLWQFGEWVDVVVDDLLPIKDGKLVFVHSAEGNEFWSALLEKAYAKVNGSYEALSGGSTSEGFEDFTGGVTEWYELRKAPSDLYQIILKALERGSLLGCSIDISSVLDMEAITFKKLVKGHAYSVTGAKQVNYRGQVVSLIRMRNPWGEVEWTGAWSDSSSEWNNVDPYERDQLRVKMEDGEFWMSFRDFMREFTRLEICNLTPDALKSRTIRKWNTTLYEGTWRRGSTAGGCRNYPATFWVNPQFKIRLDETDDPDDYGDRESGCSFVLALMQKHRRRERRFGRDMETIGFAVYEVPPELVGQPAVHLKRDFFLANASRARSEQFINLREVSTRFRLPPGEYVVVPSTFEPNKEGDFVLRFFSEKSAGTVELDDQIQANLPDEQVLSEEEIDENFKALFRQLAGEDMEISVKELRTILNRIISKHKDLRTKGFSLESCRSMVNLMDRDGNGKLGLVEFNILWNRIRNYLSIFRKFDLDKSGSMSAYEMRMAIESAGFKLNKKLYELIITRYSEPDLAVDFDNFVCCLVRLETMFRFFKTLDTDLDGVVTFDLFKWLQLTMFA
in vitro protease digestion, breakdown products on Coomassie stained membrane and Western blot [3]: human muscle Troponin-T1/3 was digested by calpain-1 protease, producing unique breakdown products | stated: cleaves (breakdown bands on a stained membrane and a blot) [3]: Coomassie panel: the band at 35 kDa in the TnT lane weakens in the +Calpain-I lanes with time and a band near the 15 kDa mark appears; band B of the blot is mapped to TnT1 (new N-terminus AEQKRGKRQTGR) | in vitro protease digestion, breakdown products on Coomassie stained membrane and Western blot [4]: human muscle Troponin-T1/3 was digested by calpain-1 protease, producing unique breakdown products | stated: cleaves (breakdown bands on a stained membrane and a blot) [4]: Coomassie panel: the band at 35 kDa in the TnT lane weakens in the +Calpain-I lanes with time; band A of the blot, just below the intact band, is mapped to TnT3 (new N-terminus APKIPEGEK)
